According to US20090156496A1, “METHODS AND COMPOSITIONS FOR TREATING AND PREVENTING PERIPHERAL NERVE DAMAGE” (CHILDREN'S MEDICAL CENTER CORPORATION, INC., priority 2006, published 2009):

What was measured:
[1] = molecular target: high-affinity oncomodulin receptor on retinal ganglion cells (RGCs) (rat); assay: cell-based or functional assay
[2] = molecular target: high-affinity oncomodulin receptor on retinal ganglion cells (RGCs) (rat); assay: displacement of AP-OM (40 nM, equilibrium binding) from RGCs by unlabeled oncomodulin
[3] = molecular target: high-affinity oncomodulin receptor on retinal ganglion cells (RGCs) (rat); assay: AP-OM binding to lightly fixed, forskolin-treated immunopurified rat RGCs; saturation curve
[4] = molecular target: high-affinity oncomodulin receptor on retinal ganglion cells (RGCs) (rat); assay: AP-OM binding to lightly fixed, forskolin-treated immunopurified rat RGCs; saturation curve and Scatchard plot

**Q.** Which effective concentration for half-maximum response (EC50) of axon outgrowth from RGCs [1] does the source give for “recombinant rat oncomodulin (from UniProt P02631 2-109) (ligand)” here?
**A.** Its effective concentration for half-maximum response (EC50) of axon outgrowth from RGCs is 3.8 nM.

**Q.** What about the IC50 [2] of the same substance?
**A.** The IC50 was 30 nM.

**Q.** With “alkaline phosphatase (AP)-oncomodulin fusion protein (from UniProt P02631 1-109) (ligand)” as the substance, how does the concentration at which binding saturated [3] read?
**A.** Its concentration at which binding saturated is over 100 nM.

**Q.** What about the Kd [4] of the same substance?
**A.** The Kd was 28 nM.
